Assay results taken from patent US20180119149.
pKd: −log10 of the molar value. Like-named read-outs stand apart in the source and are kept apart here.

What was measured:
CTLA-4 = CTLA-4 (UniProt P16410); details: bulk Kd, bead-based fluorescence
[1] = biological target: HER2 (ErbB2) (Homo sapiens) (UniProt P04626)
[2] = biological target: HER2 (ErbB2) (Homo sapiens) (UniProt P04626); details: bulk Kd, with formaldehyde cross-linking; about 5-fold higher Kd without
ErbB4 (HER4) = biological target: T1, ErbB4 (HER4) (UniProt Q15303); details: HER2 about 4 times higher
T1 sequence: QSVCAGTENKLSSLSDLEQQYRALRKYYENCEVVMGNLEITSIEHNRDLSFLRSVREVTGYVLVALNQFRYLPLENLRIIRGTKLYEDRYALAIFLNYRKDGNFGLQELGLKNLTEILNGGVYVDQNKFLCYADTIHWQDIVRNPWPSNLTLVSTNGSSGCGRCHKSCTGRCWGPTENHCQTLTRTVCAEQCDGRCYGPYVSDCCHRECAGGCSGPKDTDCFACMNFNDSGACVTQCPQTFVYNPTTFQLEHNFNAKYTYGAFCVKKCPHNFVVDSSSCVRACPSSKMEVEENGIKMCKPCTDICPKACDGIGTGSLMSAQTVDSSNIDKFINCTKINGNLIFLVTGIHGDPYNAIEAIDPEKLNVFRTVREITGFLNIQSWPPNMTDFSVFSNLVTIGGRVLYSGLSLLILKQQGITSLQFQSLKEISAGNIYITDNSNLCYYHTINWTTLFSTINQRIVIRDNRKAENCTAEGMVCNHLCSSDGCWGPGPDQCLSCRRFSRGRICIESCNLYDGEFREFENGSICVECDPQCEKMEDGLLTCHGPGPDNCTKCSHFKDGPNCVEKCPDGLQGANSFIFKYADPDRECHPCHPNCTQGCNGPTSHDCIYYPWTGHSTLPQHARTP

EGFR = EGFR (UniProt P00533); details: HER2 about 4 times higher
ErbB3 (HER3) = ErbB3 (HER3) (UniProt P21860); details: HER2 about 4 times higher
Sequence of ErbB3 (HER3) (P21860 20-643): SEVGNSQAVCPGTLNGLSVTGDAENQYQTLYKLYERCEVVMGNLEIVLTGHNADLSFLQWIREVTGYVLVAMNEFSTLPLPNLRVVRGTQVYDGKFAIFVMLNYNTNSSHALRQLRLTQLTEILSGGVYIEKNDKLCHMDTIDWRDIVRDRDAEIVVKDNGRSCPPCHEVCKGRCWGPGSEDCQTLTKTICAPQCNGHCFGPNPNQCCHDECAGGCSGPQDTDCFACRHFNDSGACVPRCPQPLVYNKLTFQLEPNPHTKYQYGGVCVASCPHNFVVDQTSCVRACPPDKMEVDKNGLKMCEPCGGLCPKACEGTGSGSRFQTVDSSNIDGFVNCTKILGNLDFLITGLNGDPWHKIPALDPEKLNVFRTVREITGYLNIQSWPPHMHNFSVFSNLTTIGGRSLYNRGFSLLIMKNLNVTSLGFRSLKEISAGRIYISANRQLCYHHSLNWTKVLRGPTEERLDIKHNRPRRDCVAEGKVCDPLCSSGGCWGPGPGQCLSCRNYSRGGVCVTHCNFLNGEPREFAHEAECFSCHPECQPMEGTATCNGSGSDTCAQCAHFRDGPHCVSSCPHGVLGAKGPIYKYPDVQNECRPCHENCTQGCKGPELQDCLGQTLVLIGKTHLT

IgE (Homo sapiens) = details: bulk Kd, bead-based fluorescence
PD-L1 = PD-L1 (UniProt Q9NZQ7); details: bulk Kd, bead-based fluorescence
Sequence of PD-L1 (Q9NZQ7 19-238): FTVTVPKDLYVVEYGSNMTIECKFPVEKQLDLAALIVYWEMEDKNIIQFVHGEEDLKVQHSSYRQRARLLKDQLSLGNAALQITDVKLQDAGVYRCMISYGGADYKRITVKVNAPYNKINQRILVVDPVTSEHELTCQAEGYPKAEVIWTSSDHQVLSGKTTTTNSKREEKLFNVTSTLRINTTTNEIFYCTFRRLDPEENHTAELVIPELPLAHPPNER

PDGF-BB (Homo sapiens) [3] = biological target: PDGF-BB (Homo sapiens) (UniProt P01127); details: bulk Kd, bead-based fluorescence
Sequence of PDGF-BB (Homo sapiens) (P01127 82-190): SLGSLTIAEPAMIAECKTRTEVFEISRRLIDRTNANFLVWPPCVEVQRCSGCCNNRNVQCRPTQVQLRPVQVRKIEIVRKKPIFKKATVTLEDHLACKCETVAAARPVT

ubiquitin = ubiquitin (UniProt P0CG48); details: bulk Kd, bead-based fluorescence
PDGF-BB (Homo sapiens) [4] = biological target: PDGF-BB (Homo sapiens) (UniProt P01127); details: unselected library on PDGF-BB beads, with formaldehyde cross-linking

Sequence of CTLA-4 (P16410 36-161): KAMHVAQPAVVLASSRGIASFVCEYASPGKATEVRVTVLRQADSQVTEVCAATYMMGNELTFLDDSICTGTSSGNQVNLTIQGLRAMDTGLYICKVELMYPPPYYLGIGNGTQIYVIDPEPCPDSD

AGCAGCACAGAGGTCAGATGNNNNNNNNNNNNNNNNNNNNNNNNNNNNNNNNNNNNNNNNCCTATGCGTGCTACCGTGAA [CTLA-4 round 3 pool]
pKd (CTLA-4): 7.98

AGCAGCACAGAGGTCAGATGNNNNNNNNNNNNNNNNNNNNNNNNNNNNNNNNNNNNNNNNCCTATGCGTGCTACCGTGAA [HER2 round 1 pool]
pKd ([1]; bulk Kd, with formaldehyde cross-linking): 7.66

AGCAGCACAGAGGTCAGATGNNNNNNNNNNNNNNNNNNNNNNNNNNNNNNNNNNNNNNNNCCTATGCGTGCTACCGTGAA [HER2 round 3 pool]
pKd [2]: 8.17 | binding signal (fraction of HER2 signal) (ErbB4 (HER4)): 0.25 | binding signal (fraction of HER2 signal) (EGFR): 0.25 | binding signal (fraction of HER2 signal) (ErbB3 (HER3)): 0.25

AGCAGCACAGAGGTCAGATGNNNNNNNNNNNNNNNNNNNNNNNNNNNNNNNNNNNNNNNNCCTATGCGTGCTACCGTGAA [IgE round 3 pool]
pKd (IgE (Homo sapiens)): 8.08

AGCAGCACAGAGGTCAGATGNNNNNNNNNNNNNNNNNNNNNNNNNNNNNNNNNNNNNNNNCCTATGCGTGCTACCGTGAA [PD-L1 round 3 pool]
pKd (PD-L1): 7.81

AGCAGCACAGAGGTCAGATGNNNNNNNNNNNNNNNNNNNNNNNNNNNNNNNNNNNNNNNNCCTATGCGTGCTACCGTGAA [PDGF-BB round 3 pool]
pKd (PDGF-BB (Homo sapiens) [3]): 8.72

AGCAGCACAGAGGTCAGATGNNNNNNNNNNNNNNNNNNNNNNNNNNNNNNNNNNNNNNNNCCTATGCGTGCTACCGTGAA [ubiquitin round 3 pool]
pKd (ubiquitin): 7.92

AGCAGCACAGAGGTCAGATGNNNNNNNNNNNNNNNNNNNNNNNNNNNNNNNNNNNNNNNNCCTATGCGTGCTACCGTGAA [unselected ssDNA library (N40)]
pKd ([1]; no obvious binding): < 6.00 | binding signal (PDGF-BB (Homo sapiens) [4]): < 2 % bound
